Legend:
PAR1 = biological target: T1, PAR1 (Homo sapiens, UniProt P25116); test: Binding of MBP-Gαq to purified, reconstituted activated PAR1 (ELISA); design: made in house; host or cells: Sf9 insect cells infected with ThR/pBluebac recombinant virus, purified on an anti-PAR1 monoclonal antibody column; conditions: purified reconstituted PAR1 with thrombin receptor activating peptide
T1 sequence (P25116 22-425): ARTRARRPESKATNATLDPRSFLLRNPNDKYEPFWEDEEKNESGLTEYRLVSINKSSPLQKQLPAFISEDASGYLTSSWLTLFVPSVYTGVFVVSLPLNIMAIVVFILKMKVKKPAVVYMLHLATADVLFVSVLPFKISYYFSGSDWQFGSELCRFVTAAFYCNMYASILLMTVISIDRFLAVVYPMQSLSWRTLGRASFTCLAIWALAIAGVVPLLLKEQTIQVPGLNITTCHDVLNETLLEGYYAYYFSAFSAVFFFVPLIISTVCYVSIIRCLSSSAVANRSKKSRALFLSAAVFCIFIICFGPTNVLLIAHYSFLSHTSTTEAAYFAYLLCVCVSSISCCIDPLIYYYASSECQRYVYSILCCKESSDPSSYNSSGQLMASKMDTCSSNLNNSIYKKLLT
Protocol: Microtiter wells were coated with purified, reconstituted PAR1 in the presence of […] thrombin receptor activating peptide, as described above in Example 6. Purified maltose binding protein-Gαq (MBP-Gαq) was added at the concentrations indicated in FIG. 11 and incubated one hour on a shaker at 4° C. The wells were rinsed and then probed with a rabbit anti-maltose binding protein antibody, followed by alkaline phosphatase conjugated secondary antibodies, as described above. Substrate was added and the color was allowed to develop about 20 minutes. Absorbance at 405 nm was measured and dose-response curves were calculated using GraphPad Prism (version 2.0). See results in FIG. 11.

rhodopsin = biological target: T2, rhodopsin (Bos taurus, UniProt P02699); test: "extra MII" assay: stabilization of metarhodopsin II; format: biochemical, bovine
T2 construct: Bovine rod outer segments (rhodopsin-containing membranes) were prepared from fresh retinas; from tissue; host or cells: bovine retina, rod outer segment membranes (EDTA- and urea-washed)
T2 sequence (P02699 whole entry): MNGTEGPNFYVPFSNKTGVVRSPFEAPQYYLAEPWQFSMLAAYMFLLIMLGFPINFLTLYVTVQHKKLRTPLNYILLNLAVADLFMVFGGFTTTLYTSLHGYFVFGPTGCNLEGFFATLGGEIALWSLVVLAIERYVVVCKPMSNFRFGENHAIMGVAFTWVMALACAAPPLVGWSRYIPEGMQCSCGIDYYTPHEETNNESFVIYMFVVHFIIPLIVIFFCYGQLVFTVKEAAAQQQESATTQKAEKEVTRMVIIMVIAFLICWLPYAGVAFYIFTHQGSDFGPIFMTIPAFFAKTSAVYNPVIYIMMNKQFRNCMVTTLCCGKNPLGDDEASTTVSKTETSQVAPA
Source text: Rhodopsin can be measured spectrophotometrically in many of its conformational states. The high affinity, biologically active rhodopsin state can be easily differentiated from its precursor, MI, by the “extra” MII assay. See Example 35. This assay relies on the observation that under conditions of high pH and low temperature, MII is stabilized in the presence of Gt and can be spectrophotometrically measured. The ability of the C-terminal peptide to stabilize Meta II in the same manner as the heterotrimeric Gt, provides the tools to investigate the structural basis of the interaction of G proteins with the agonist binding sites of activated receptors.
For the “extra MII” assay, EDTA-washed rhodopsin (Example 5; 5 μM) is incubated in a 50 mM HEPES buffer, pH 8.2, with 100 mM NaCl, 1 mM MgCl2, and 1 mM DTT at 5.3° C., in the absence or presence of varying concentrations of Gt340-350 analogs or Gt. The sample is maintained at 5.4° C. using a water-jacketed and thermostated circulator cuvette holder in an SLM Aminco DW2000 spectrophotometer at 390 and 440 nm. A flash of light bleaching 10% of the rhodopsin is presented and after a 1 min incubation, a second spectrum is measured and the difference in spectrum calculated. “Extra” MII is calculated as the difference between the absorbance at 390 and 440. Dose response curves of MII stabilization by αt340350 (λ), mutant α340-350K341L(ν), and heterotrimeric Gt (v) were analyzed by non-linear regression using the program GraphPad PRISM and are shown in FIG. 23.
EDTA-washed rhodopsin (5 μM) was incubated in a 50 mM HEPES buffer, pH 8.2, with 100 mM NaCl, 1 mM MgCl2, and 1 mM DTT at 5.3° C., and “extra” MII was measured. For compounds that enhanced MBP-8 binding over 25% using the color coded readout, dose studies were performed to generate EC50 curves. Table XXII below provides the calculated EC50 for metarhodopsin II stabilization of each compound.

[1] = biological target: T3, light-activated rhodopsin (Bos taurus, UniProt P02699); test: Competition of heterotrimeric Gt with MBP high affinity peptide fusion proteins for rhodopsin; format: binding, bovine; conditions: 1 μM heterotrimeric Gt
T3 construct: Bovine rod outer segments (rhodopsin-containing membranes) were prepared from fresh retinas; from tissue; host or cells: bovine retina, rod outer segment membranes (EDTA- and urea-washed)
T3 sequence (P02699 whole entry, the tested form may be a part): as the sequence (P02699 whole entry) above
Protocol: When light-activated rhodopsin was screened for peptides based on the C-terminus of Gt, a large number of high-affinity sequences were obtained. Binding of MBP fusion proteins containing the high affinity peptide from the library (sequences from clones 8, 9, 10, 18, 23, 24, as well as pELM17 which encodes the wild-type peptide sequence, and pELM6 which contains no peptide; MBP-8, MBP-9, MBP-10, MBP-18, MBP-23, MBP-24, MBP-pELM17) were assessed for their ability to bind rhodopsin (0.5 μg rhodopsin/well) in the presence or absence of heterotrimeric Gt.
Lysate (50 μl) from each clone was added and incubated in the light. After 45 minutes, 1 μM heterotrimeric Gt was added and the solution incubated for 30 minutes. Anti-MBP antibody was added, followed by goat anti-rabbit alkaline phosphatase conjugated antibody and substrate. The color was allowed to develop.

| IC50 (PAR1) [nM] | stabilization of MII (in words) (rhodopsin) | effect on high affinity peptide fusion protein binding to light-activated rhodopsin (in words) [1] | Substance |
| --- | --- | --- | --- |
| 214 |  |  | MBP-Gαq: purified maltose binding protein fused to native Gαq C-terminal peptide |
|  | stabilize the active form of rhodopsin | competitively inhibited | heterotrimeric Gt: heterotrimeric G protein, transducin (Gt) [reference compound] |

Reference: patent US7294472B2, “Method for identifying modulators of G protein coupled receptor signaling” (Caden Biosciences, priority 2001, dated 2007)
